Experimental data as given in the supplement of paper PMC7125110.
± gives the standard error. Fewer inactive variants are shown than the library holds.

B1: glmS ribozyme (parent)
chain: AUAAAAGCGCCAGAACUACAGAAAUGUAGUUGACGAGGAGGAGGUUUAUCGAAUUUUCGGCGGAUGCCUCCAAA

Variants of: B1
Experiment: self-cleavage kobs at 10000 uM GlcN6P; higher = faster cleavage; RNA array
Conditions: with glucosamine-6-phosphate
Procedure, shortened: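 Barcoded ribozyme variants were transcribed in situ on sequenced MiSeq chips by E. coli RNA polymerase. At 37 °C, a hybridised Cy3 probe tracked them while glucosamine-6-phosphate (40 μM to 10 mM) in HEPES/KCl/Mg(OAc)2 buffer flowed in and tiles were imaged over ~14 h. Per-tile medians of signals normalised to baseline and to non-cleaving reference variants were fit to one- or two-exponential decays, giving kobs. kcat and KM came from weighted Michaelis–Menten fits across concentrations.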

Variant	self-cleavage kobs at 10000 uM GlcN6P [s⁻¹]
G29U G37A C67U	5.27e-05 ± 1.5e-05
U57C C58A C70U	3.37e-05 ± 1.7e-05
C10G A39U A48C	< 1e-05
G7A A39U G43U	< 1e-05
A48U U54C C68U	9.01e-05 ± 2.8e-05
G9C C11U C61G	0.000219 ± 4.5e-05
G13U A39G C68U	0.000334 ± 8.3e-05
A6G C58U A64U	< 1e-05
A39G U54A G62U G66A	< 1e-05
U54G C67U C68U	0.000147 ± 2.9e-05
A6U G7U G9C	< 1e-05
G44C C50U U56A	< 1e-05
G29A G32U C70A	4.82e-05 ± 1.8e-05
A6G U30A C34U C67G C71G	7.35e-05 ± 3.3e-05
G43U U65G C68U	0.0019 ± 0.00044
A15U G29C U47G U54A	0.000122 ± 2.4e-05
C11G G60U U69G	< 1e-05
G32A A64U C68U	< 1e-05
U30C U55C C70U	8.64e-05 ± 1.7e-05
G29U G40A A52C C67A	< 1e-05
A39U G43A U47C G59A C67U	< 1e-05
C10A C11A G44A	< 1e-05
C8A A39U U47G	< 1e-05
G7A U30A A39C A48C	< 1e-05
A39U U46A A53G	0.00108 ± 0.00026
G7A G13C G60A	< 1e-05

Variant	self-cleavage kobs at 10000 uM GlcN6P [s⁻¹]
A14G A64G C68G	< 1e-05
A48G U49G	5.7e-05 ± 2.1e-05
A12G U30G U47C U49C	< 1e-05
U31A C34U G44A	< 1e-05
G13A C50G G66U	6.48e-05 ± 2.1e-05
C11G A42U C50G C67U	0.000569 ± 0.00021
C16U G29U G32C	8.38e-05 ± 1.7e-05
A12G C16A G29U	0.000458 ± 9.3e-05
A39G G60A	2.33e-05 ± 1.2e-05
G35C A48G G59U G60A	< 1e-05
G13C U47A	7.19e-05 ± 9.5e-06
U31C U45A A52G C68U	0.000129 ± 3.8e-05
C16U G40C A53C C71U	0.000561 ± 0.00013
C11A G66A	6.59e-05 ± 1.3e-05
A6C G32U C50A	< 1e-05
G9A C34A A64G C70G	< 1e-05
G32A U47G A52G C61G C71G	6.89e-05 ± 2.1e-05
G29C G41C A42U	< 1e-05
U30G U49A C68A	< 1e-05
U31G G43C U45G	0.000273 ± 8.2e-05
A1U U2G A3G C8G C34G	< 1e-05
C8G A15C G40A G41U C50U C70G	< 1e-05
A15U G32U U54A	0.00058 ± 0.00013
C16G G32U C70U	0.000712 ± 0.00013
C34A A64G U69C	< 1e-05
U45G U46C U54G	0.00762 ± 0.0023

Variant	self-cleavage kobs at 10000 uM GlcN6P [s⁻¹]
A14G C50G C70U	9.53e-05 ± 1.4e-05
G13C A36C U54C	< 1e-05
A42G C58G U69C	0.000133 ± 3.8e-05
C11U G32A A42G A53U	9.31e-05 ± 2.5e-05
C34U G38U G40U	< 1e-05
A6C U31C G35A A42C	< 1e-05
U56G A64U C70U	4.79e-05 ± 1.2e-05
G41U U57C A64C	< 1e-05
A39C U47C C70U	0.000412 ± 0.0001
C34A C58G C68G	0.000608 ± 0.00016
C34G G35U G38A C50A U69G	0.000375 ± 5.4e-05
G13C U65A	< 1e-05
G9A A53G	3.28e-05 ± 1.3e-05
A14U A36C A48G C61U	< 1e-05
C11G A12G G32C U57C	< 1e-05
C34G A64C C67A	< 1e-05
C10U G13C G63U	< 1e-05
C11A A33G C50U C58U G59U G63A	< 1e-05
A15U A39G G62A	< 1e-05
A15U C16G G32C	8.84e-05 ± 2.6e-05
C8U A48U C71U	< 1e-05
C34A A36C G37U U69G	0.000153 ± 3.2e-05
G7A C71U	3.82e-05 ± 1e-05
G35C G59A C61U	< 1e-05
A36U U49A	8.19e-05 ± 9.1e-06
A14U A53C C67U	0.000208 ± 3.8e-05

Variant	self-cleavage kobs at 10000 uM GlcN6P [s⁻¹]
A15U G21U	0.00395 ± 0.00079
A42U A52G U57A G63C	< 1e-05
A42G U46G U56C	0.00095 ± 0.0002
C16G U47A U56A U65G	0.000338 ± 9.1e-05
C16A G35U G60U	< 1e-05
G7U C8G C16A	< 1e-05
C11A A42U G51U G60C	< 1e-05
G35C G38U G43A G51C G60C	< 1e-05
C50G C67U C68G C71G	0.000108 ± 2.8e-05
G51A A52U G59A	< 1e-05
G40U G43U U54C	< 1e-05
C11A U31C U45A	4.34e-05 ± 1.5e-05
C8A A36G U57C	< 1e-05
A14C G51U	< 1e-05
G21U A33U C70U	0.000159 ± 2.9e-05
G29C U46A	7.43e-05 ± 1.7e-05
A36C G37C A53U U69C	< 1e-05
A14G G43U U47A C58A C67A	7.13e-05 ± 1.3e-05
G7U A48G C50G C61G	0.000895 ± 0.00024
A15U G59U C71G	< 1e-05
G43A A52C C58A G66U C67G U69G	< 1e-05
C10A C11G C16G A48U C50G C70A	6.85e-05 ± 1.8e-05
C11G A14C G43U	< 1e-05
A33U G35C G62U C67U	< 1e-05
C8U G13U A15U C50U	< 1e-05
G40A A64U	2.07e-05 ± 9.5e-06

Variant	self-cleavage kobs at 10000 uM GlcN6P [s⁻¹]
A33U G40A	4.3e-05 ± 5.8e-06
C34U U45A C61U	< 1e-05
C10A A14C U30G	< 1e-05
A14G U30G U47C	0.00168 ± 0.00041
U31A G66C	0.000307 ± 9.3e-05
A14G G44C U55G C67U	0.000221 ± 4.1e-05
C10U G43A C71U	< 1e-05
A6U G38A G66C	< 1e-05
G9C G38C G43U	< 1e-05
G7U A15U C50G A53U U55G G62U	7.67e-05 ± 2.5e-05
U56A U69C C71G	8.19e-05 ± 2e-05
C8U U30G A39G G43U	< 1e-05
C16G G37C G62A	< 1e-05
G32C G38C G60U C67G	< 1e-05
A12G A14G G59C	0.000119 ± 3.7e-05
U31C G32A U47G C67A	6.62e-05 ± 1.4e-05
C16G G29U C58A	0.000585 ± 0.00014
A33U U45A U55C C71U	< 1e-05
C10U G13A G40U	< 1e-05
U55G G59U	4.4e-05 ± 1.1e-05
G44A U45A C58G	< 1e-05
A14G A36C U54A G63U	< 1e-05
A6G C10A U30C U49A	< 1e-05
C8A C11U C34U A39U C58A C67U	< 1e-05
A14G C58U C71U	0.00012 ± 2.1e-05
G7C G62C	< 1e-05

Variant	self-cleavage kobs at 10000 uM GlcN6P [s⁻¹]
A6C G59A G66A	< 1e-05
U46G G62A C71A	< 1e-05
C8A G35U G44U A52G	< 1e-05
A12U C34A A39U C70U	< 1e-05
U31C C50G G63A	3.51e-05 ± 1.5e-05
A14U G35C G41A U46A	< 1e-05
C16A G38A A48C	< 1e-05
G7C G29A	< 1e-05
A12U G13C A52U G60A A64C	< 1e-05
C11U A36C A39G U45G C61U	< 1e-05
A6C C16U G29C C58A	< 1e-05
A6C C8A A36C	< 1e-05
A14U A48C U56G C68A	< 1e-05
G9A A33U U69C	< 1e-05
C8U G51U U69A	0.000401 ± 0.00014
G37C A64C C67G	< 1e-05
G59A C68A U69A	< 1e-05
C11A U45A U46G	0.000161 ± 4e-05
A6C G7C G35A C68G	< 1e-05
C10G A42C U69G	< 1e-05
A6U A39C G43U G51U C70G C71A	< 1e-05
A33C U46C	4.16e-05 ± 1.7e-05
A33G G35U A39G A53U G62C	< 1e-05
